Experimental data as given in the Human Domainome abundance scans (Beltran et al. 2025).

B1: Kinesin-like protein KIF16B, residues 1213 to 1273; numbered along this chain, Q96L93 (parent)
chain: ETWTVFRRYSRFREMHKTLKLKYAELAALEFPPKKLFGNKDERVIAERRSHLEKYLRDFFS

Variants of: B1
Assay: abundance fitness (aPCA) (normalised: wild type 0, dead -1); higher = more abundant; growth selection in yeast, the domain comes from the species named
Conditions: Homo sapiens

Abundance fitness: each site, then its substitutions
A46: V -0.057, Y -0.262, Q -0.03, T 0.242, G 0.211, P 0.256, R 0.131, S 0.147, L -0.324, M -0.073, D -0.01, W -0.176
Y55: M 0.185, K 0.481, C 0.265, R 0.396, A -0.007, S 0.12, L 0.182, G 0.021, H -0.116, P -0.19, D -0.613, N -0.249, E -0.942
L52: M -0.131, A -0.201, P 0.175, V 0.058, R -0.473, T -0.363, I -0.092, S -0.647, K -0.184, H -0.123, Q -0.866, F 0.048, G -0.149, W 0.217, N -0.642
G38: D -0.678, M -0.492, Q -0.076, W -0.144, N -0.195, R -0.145, P -0.279, T -0.061, C -0.46, H -0.151, I -0.347, Y -0.8, K -0.346, A -0.202, L -0.458, F -0.224, S -0.234, E -0.173
R48: M 0.159, G 0.108, P 0.113, S -0.018, Q -0.291, F 0.087, E -0.374, Y -0.266, I 0.123, K -0.061, W 0.275, V -0.05, T -0.363, D -0.186, C -0.148
K35: M -0.36, T -0.585, D -0.717, V -0.34, S -0.108, N 0.034, E -0.786, A -0.204, I -0.521, G -0.148, Y -0.073, Q -0.233
R49: P -0.273, C 0.247, V -0.41, A -0.166, Y -0.68, K 0.504, L 0.279, M -0.477, Q -0.201, W -0.064, G -0.01, S -0.145, I 0.367, T -0.286
F37: L -0.271, V -0.202, I -0.111, E -0.407, G -0.334, R -0.35, A -0.451, T -0.566, W -0.734, S -0.446, C -0.631, H -0.597, D -0.2, K -0.189, P -0.573, Q -0.476
D41: N 0.08, Q -0.064, Y 0.057, P -0.167, K 0.028, I 0.394, M 0.231, T -0.101, V 0.159, C 0.101, S 0.065, L 0.332, H -0.025, F 0.149, E -0.07, W 0.354, R -0.184, G 0.038, A 0.154
L36: P -0.317, D -0.596, W 0.27, Y -0.525, T -0.453, F -0.02, K -0.463, A -0.41, G -0.658, M -0.586, Q -0.976, S -0.67, V -0.435, R -0.634, H -0.826, E -0.592
S50: K -0.133, L -0.042, G -0.1, P 0.045, T -0.056, E -0.696, V -0.36, R -0.301, Q -0.545, F -0.117, D -0.11, A -0.213, Y -0.66, N 0.05, W 0.117, H -0.039, C 0.256
